Test results from US20220193114A1.

Biological target: MuSK (wild type, full length, mouse) (mouse) (UniProt Q61006)
Test: cell-based or functional assay

Sequence of UniProt Q61006 (Q61006 22-868): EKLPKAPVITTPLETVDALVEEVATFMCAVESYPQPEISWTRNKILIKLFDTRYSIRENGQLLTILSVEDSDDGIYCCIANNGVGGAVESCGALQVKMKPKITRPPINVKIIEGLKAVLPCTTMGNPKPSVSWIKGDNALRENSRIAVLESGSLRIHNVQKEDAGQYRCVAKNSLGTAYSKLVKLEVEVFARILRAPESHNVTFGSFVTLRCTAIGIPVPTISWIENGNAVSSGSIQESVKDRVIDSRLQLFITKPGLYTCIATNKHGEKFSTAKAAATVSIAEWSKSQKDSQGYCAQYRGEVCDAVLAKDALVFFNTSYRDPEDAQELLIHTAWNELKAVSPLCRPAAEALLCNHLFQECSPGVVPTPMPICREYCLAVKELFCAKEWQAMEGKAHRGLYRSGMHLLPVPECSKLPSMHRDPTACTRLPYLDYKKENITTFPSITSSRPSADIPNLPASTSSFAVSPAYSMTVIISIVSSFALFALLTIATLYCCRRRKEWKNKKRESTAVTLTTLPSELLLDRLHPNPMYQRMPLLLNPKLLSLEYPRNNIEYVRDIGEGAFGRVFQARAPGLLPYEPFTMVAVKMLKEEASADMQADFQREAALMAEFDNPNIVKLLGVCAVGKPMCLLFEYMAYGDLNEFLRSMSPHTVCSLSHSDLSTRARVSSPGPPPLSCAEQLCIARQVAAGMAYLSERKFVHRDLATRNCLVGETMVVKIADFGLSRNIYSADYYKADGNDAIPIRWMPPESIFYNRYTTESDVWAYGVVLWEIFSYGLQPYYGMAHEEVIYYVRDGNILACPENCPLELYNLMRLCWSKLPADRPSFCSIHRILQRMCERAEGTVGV

For BMP4 (ligand), the transcription of Wnt11 in response to BMP4 (qRT-PCR, primary myotubes), WT response relative to ΔIg3-MuSK response (fold (WT response / ΔIg3-MuSK response)) was 2.2 and the transcriptional response of Dok7 to BMP4 (qRT-PCR, primary myotubes), WT response relative to ΔIg3-MuSK response (fold (WT response / ΔIg3-MuSK response)) was 1.6.
